Where a chain is given by its changes, count along the chain named.
B1: BM2 (selicrelumab) (antibody, human IgG2, kappa, V domains shown)
VH: not shown
VL: DIQMTQSPSSVSASVGDRVTITCRASQGIYSWLAWYQQKPGKAPNLLIYTASTLQSGVPSRFSGSGSGTDFTLTISSLQPEDFATYYCQQANIFPLTFGGGTKVEIKR
notes: Benchmark antibody, prepared in-house; also called CD40-BM2; benchmark
B2: BM1 (dacetuzumab) (antibody, human IgG1, kappa, V domains shown)
VH: EVQLVESGGGLVQPGGSLRLSCAASGYSFTGYYIHWVRQAPGKGLEWVARVIPNAGGTSYNQKFKGRFTLSVDNSKNTAYLQMNSLRAEDTAVYYCAREGIYWWGQGTLVTVSS
VL: DIQMTQSPSSLSASVGDRVTITCRSSQSLVHSNGNTFLHWYQQKPGKAPKLLIYTVSNRFSGVPSRFSGSGSGTDFTLTISSLQPEDFATYFCSQTTHVPWTFGQGTKVEIKR
notes: Benchmark antibody, prepared in-house; also called CD40-BM1; benchmark
B3: humanized antibody huC1H1-V1 (antibody, human IgG2, kappa, V domains shown)
VH: EVQLVESGGGLVKPGGSLRLSCAASGFTFSNYGISWVRQAPGKGLEWVASISSGGDNTYYPDNVKGRFTISRDNAKNSLYLQMNSLRAEDTAVYYCARAGEKAMDYWGQGTLVTVSS
VL: EIVLTQSPATLSLSPGERATLSCRASQTINNNLHWYQQKPGQAPRLLIKYASQSISGIPARFSGSGSGTDFTLTISSLEPEDFAVYFCQQFSSWPLTFGGGTKVEIKR
notes: Human IgG2 / kappa
B4: humanized antibody huC1H1-V2 (antibody, human IgG2, kappa, V domains shown)
VH: B3 VH with A49S
VL: B3 VL
notes: Human IgG2 / kappa
B5: chimeric antibody C1H1 (antibody, human IgG1, kappa, V domains shown)
VH: EVKLVESGGGLVKPGASLKLSCAASGFTFSNYGISWVRQTSDKRLEWVASISSGGDNTYYPDNVKGRFTISRENAKNTLYLQMSSLKSEDTALYYCARAGEKAMDYWGQGTSVTVSS
VL: DIVLTQSPVTLSVTPGDSVSLSCRASQTINNNLHWYQQKSHESPRLLIKYASQSISGIPSRFSGSGSGTDFTLSINSVETEDFGIYFCQQFSSWPLTFGAGTKLELKR
notes: also called Chimeric C1H1
B6: mouse anti-CD40 monoclonal antibody C1H1 (antibody, V domains shown)
VH: B5 VH
VL: DIVLTQSPVTLSVTPGDSVSLSCRASQTINNNLHWYQQKSHESPRLLIKYASQSISGIPSRFSGSGSGTDFTLSINSVETEDFGIYFCQQFSSWPLTFGAGTKLELK
notes: Parent mouse antibody from a hybridoma; the mouse constant regions are not; also called Mouse C1H1

Target: T1, cynomolgus monkey CD40-his protein (Acro biosystems, Cat. No. CD0-C52H6) (cynomolgus monkey, UniProt G7PG38 21-193)
T1 construct: Bought protein; not shown: His tag
Assay: SPR (Biacore T200), antibody captured on anti-human IgG chip, CD40-his as analyte, 1:1 fit
From the text: (§1) Briefly, a goat anti-human IgG (GE Healthcare, Cat. No. BR100839, human antibody capture kit) was covalently linked to a CM5 chip (GE Healthcare, Cat. No. BR100530, carboxymethylated dextran-coated chip) via the primary amine group using a standard amine coupling kit supplied by Biacore (GE Healthcare, Pittsburgh, PA, USA). Unreacted portions on the biosensor surface were blocked with ethanolamine. Then, the anti-CD40 antibody of the present application and two benchmark antibodies (BM1 (dacetuzumab, Genentech Inc., also referred to CD40-BM1, prepared in-house; the heavy and light chain amino acid sequences are set forth in SEQ ID NOs: 40 and 41, respectively) and BM2 (selicrelumab, Abgenix Inc., also referred to CD40-BM2, prepared in-house; the heavy and light chain amino acid sequences are set forth in SEQ ID NOS: 42 and 43, respectively)) at a concentration of 66.67 nM were directed through the chip at a flow rate of 10 μL/min. Then, serially diluted recombinant human CD40-his (Acro biosystems, Cat. No. CD0-H5228, serially 2-fold diluted from 80 nM in HBS-EP⁺ buffer (supplied by Biacore)) or cynomolgus monkey CD40-his protein (Acro biosystems, Cat. No. CD0-C52H6, serially 2-fold diluted from 80 nM in HBS-EP⁺ buffer (supplied by Biacore)) was directed through the chip at a flow rate of 30 μL/min. The antigen-antibody binding kinetics was tracked for 2 min and the dissociation kinetics was tracked for 10 min. The association and dissociation curves were fitted to a 1:1 Langmuir binding model using BIAcore evaluation software. KD, Kₐ, and Kd values were determined.

Row | Kd [nM] | koff [s⁻¹] | kon [M⁻¹ s⁻¹] | Binder
1 | 8.73 | 0.00151 | 173000 | B1
2 | 9.68 | 0.0074 | 764000 | B2
3 | 1.11 | 0.00237 | 2.14e+06 | B3
4 | 1.07 | 0.00274 | 2.56e+06 | B4
5 | 0.846 | 0.00215 | 2.54e+06 | B5

Target: T2, recombinant human CD40-his (Acro biosystems, Cat. No. CD0-H5228) (human, UniProt P25942 21-193)
T2 construct: Bought protein; also called human CD40-his protein; not shown: His tag
Assay: as above
From the text: as §1

Row | Kd [nM] | koff [s⁻¹] | kon [M⁻¹ s⁻¹] | Binder
6 | 7.84 | 0.00162 | 206000 | B1
7 | 9.42 | 0.00756 | 803000 | B2
8 | 1.1 | 0.00248 | 2.25e+06 | B3
9 | 1.17 | 0.0027 | 2.31e+06 | B4
10 | 0.884 | 0.00222 | 2.51e+06 | B5

Target: T3, human CD40-Fc protein (human, biotinylated (sites not given) in the capture ELISA and the benchmark blocking ELISA; not biotinylated in the ligand blocking ELISA)
T3 construct: also called biotinylated human CD40-Fc
Assay: competitive ELISA: BM2 (selicrelumab) coated as competitor, antibody titrated and pre-mixed with biotinylated human CD40-Fc 0.23 nM, streptavidin-HRP, OD(450-630)
Procedure: The ability of the anti-CD40 antibody of the present application to block the binding of the benchmark to human CD40 was determined by competitive ELISA. Briefly, BM2 antibody was immobilized on a 96-well micro plates at 1 μg/mL in PBS, 100 µL/well, and incubated overnight at 4° C. The next day, the plate was washed once with a washing buffer before a blocking buffer (PBST containing 5% w/v of skim milk) was added. The plate was then incubated at 37° C. for 2 h for blocking. During the blocking of the 96-well plate, the anti-CD40 antibody of the present application or the benchmark was serially 5-fold diluted from 66.7 nM with a biotinylated human CD40-Fc protein (amino acid residues 21-193 of SEQ ID NO: 30 linked to the N terminus of amino acid residues 99-330 of SEQ ID NO: 28, dissolved in PBST containing 2.5% w/v of skim milk at a concentration of 0.23 nM) and then incubated at room temperature for 40 min. After the plate was washed 4 times, the antibody/biotinylated human CD40-Fc mixture was added at 100 μL/well to the plate coated with BM2. The plate was incubated at 37° C. for 40 min and again washed 4 times with the washing buffer. An HRP-labeled streptavidin was added at 100 μL/well, and the plate was incubated at 37° C. for 40 min to detect biotinylated human CD40-Fc immobilized on the plate. Again, the plate was washed 4 times with the washing buffer. Finally, TMB was added and the reaction was stopped by adding 1 M H₂SO₄. The absorbance was read on a microplate reader using the dual wavelength mode (TMB detection wavelength: 450 nm, reference wavelength: 630 nm). Curves of OD(450-630) values vs. antibody concentration were plotted. Data were analyzed using Graphpad Prism software, and IC₅₀ values were obtained.

Row | IC50 [nM] | Binder
11 | 0.0461 | B2
12 | 0.513 | B3
13 | 0.318 | B4
14 | 0.125 | B6
15 | 0.16 | B5

Target: T3, human CD40-Fc protein
Assay: capture ELISA: antibody captured on coated goat anti-human IgG F(ab')2, biotinylated human CD40-Fc 1.15 nM, streptavidin-HRP, OD(450-630)
Procedure: The plate was washed once with a washing buffer (PBS+0.05% v/v of Tween-20, PBST) and then blocked with 200 μL/well blocking buffer (PBST containing 5% w/v of skim milk) for 2 h at 37° C. The plate was washed 4 times, and the anti-CD40 antibody of the present application, BM1, BM2, and a negative control hIgG (human immunoglobulin for intravenous injection (pH 4), Hualan Biological Engineering Inc.) serially 5-fold diluted from 66.7 nM in a PBST containing 2.5% w/v of skim milk was added at 100 μL per well. The plate was incubated for 40 min at 37° C. and washed 4 times. A biotinylated human CD40-Fc protein (amino acid residues 21-193 of SEQ ID NO: 30 linked to the N terminus of amino acid residues 99-330 of SEQ ID NO: 28, dissolved in PBST containing 2.5% w/v of skim milk at a concentration of 1.15 nM) was added at 100 μL/well to a 96-well plate coated with the anti-CD40 antibody. The plate was incubated at 37° C. for 40 min and washed 4 times. An HRP-labeled streptavidin (diluted at 1:10000 in PBST, Jackson Immuno Research, Cat. No. 016-030-084) was added at 100 μL/well, and the plate was incubated at 37° C. for another 40 min. After the last wash, 100 μL/well of ELISA substrate TMB (Innoreagents, Cat. No. TMB-S-002) was added and the plate was incubated at room temperature. After 3-10 min, the reaction was stopped by adding 1 M H₂SO₄ at 50 µL/well, and the absorbance of each well was read on a microplate reader using the dual wavelength mode (TMB detection wavelength: 450 nm, reference wavelength: 630 nm). Curves of OD(450-630) values vs. antibody concentration were plotted. Data were analyzed using Graphpad Prism software, and EC₅₀ values were obtained.

Row | EC50 [nM] | Binder
16 | 0.909 | B1
17 | 0.463 | B2
